In assay [1] the target is FcγRIIIa on human effector cells of a FcγRIIIa Phe/Val^158 heterozygote donor (human) (UniProt P08637). The assay can be described thus: cell-based or functional assay.
The target in assay [2] is FcγRIIIa on human effector cells of a FcγRIIIa Phe/Phe^158 homozygote donor (human) (UniProt P08637). The assay can be described thus: cell-based or functional assay.

As to MDX-060 CHO (antibody), the ADCC, maximal percent cell lysis of L540 target cells amounted to 31% in assay [1] and 15% in assay [2].
The like results for MDX-060 LEX (antibody) were, in that order, 31% and 27%.
In the case of MDX-060 LEX^Opt (antibody), in assay [1], the ADCC EC50, times lower than MDX-060 CHO was found to be 5 fold and the ADCC EC50, times lower than MDX-060 LEX was 3 fold.

The values are drawn from patent US20080060092A1.
